Reference: patent US20240270846A1 (published 2024)
Positions count from the first letter of the chain named. Numbers in names are those of the source.

B1: CE115HA000 H35A one-arm antibody (antibody, human IgG1, kappa, L234A L235A, N297A, name in Kabat numbering)
heavy: QVQLVESGGGVVQPGRSLRLSCAASGFTFSNAWMAWVRQAPGKGLEWVAQIKAKSNNYATYYAESVKGRFTISRDDSKNSLYLQMNSLKTEDTAVYYCRYVHYGAYYGVDAWGQGTTVTVSSASTKGPSVFPLAPSSKSTSGGTAALGCLVKDYFPEPVTVSWNSGALTSGVHTFPAVLQSSGLYSLSSVVTVPSSSLGTQTYICNVNHKPSNTKVDKKVEPKSCDKTHTCPPCPAPEAAGGPSVFLFPPKPKDTLMISRTPEVTCVVVDVSHEDPEVKFNWYVDGVEVHNAKTKPREEQYASTYRVVSVLTVLHQDWLNGKEYKCKVSNKALPAPIEKTISKAKGQPREPQVYTLPPSRCELTKNQVSLSCAVKGFYPSDIAVEWESNGQPENNYKTTPPVLDSDGSFFLVSKLTVDKSRWQQGNVFSCSVMHEALHNHYTQKSLSLSPDYKDDDDK
chain: EPKSSDKTHTCPPCPAPELLGGPSVFLFPPKPKDTLMISRTPEVTCVVVDVSHEDPEVKFNWYVDGVEVHNAKTKPREEQYNSTYRVVSVLTVLHQDWLNGKEYKCKVSNKALPAPIEKTISKAKGQPREPQVCTLPPSRDELTKNQVSLWCLVKGFYPSDIAVEWESNGQPENNYKTTPPVLDSDGSFFLYSKLTVDKSRWQQGNVFSCSVMHEALHNRYTQKSLSLSP
light: DIVMTQSPLSLPVTPGEPASISCRSSQSLVHSNRNTYLHWYQQKPGQAPRLLIYKVSNRFSGVPDRFSGSGSGTDFTLKISRVEAEDVGVYYCGQGTQVPYTFGQGTKLEIKRTVAAPSVFIFPPSDEQLKSGTASVVCLLNNFYPREAKVQWKVDNALQSGNSQESVTEQDSKDSTYSLSSTLTLSKADYEKHKVYACEVTHQGLSSPVTKSFNRGEC
notes: one-arm antibody
B2: CE115HA000 A56G one-arm antibody (antibody, human IgG1, kappa, L234A L235A, N297A, name in Kabat numbering)
heavy: B1 heavy with A35H, A59G
chain: B1 chain
light: B1 light
notes: one-arm antibody
B3: CE115HA000 A56D one-arm antibody (antibody, human IgG1, kappa, L234A L235A, N297A, name in Kabat numbering)
heavy: B1 heavy with A35H, A59D
chain: B1 chain
light: B1 light
notes: one-arm antibody
B4: CE115HA000 A52aP one-arm antibody (antibody, human IgG1, kappa, L234A L235A, N297A, name in Kabat numbering)
heavy: B1 heavy with A35H, A53P
chain: B1 chain
light: B1 light
notes: one-arm antibody
B5: CE115HA000 G65E one-arm antibody (antibody, human IgG1, kappa, L234A L235A, N297A, name in Kabat numbering)
heavy: B1 heavy with A35H, G68E
chain: B1 chain
light: B1 light
notes: one-arm antibody
B6: CE115HA000 A52aS one-arm antibody (antibody, human IgG1, kappa, L234A L235A, N297A, name in Kabat numbering)
heavy: B1 heavy with A35H, A53S
chain: B1 chain
light: B1 light
notes: one-arm antibody
B7: CE115HA000 A56K one-arm antibody (antibody, human IgG1, kappa, L234A L235A, N297A, name in Kabat numbering)
heavy: B1 heavy with A35H, A59K
chain: B1 chain
light: B1 light
notes: one-arm antibody
B8: CE115HA000 A52aV one-arm antibody (antibody, human IgG1, kappa, L234A L235A, N297A, name in Kabat numbering)
heavy: B1 heavy with A35H, A53V
chain: B1 chain
light: B1 light
notes: one-arm antibody
B9: CE115HA000 D72A one-arm antibody (antibody, human IgG1, kappa, L234A L235A, N297A, name in Kabat numbering)
heavy: B1 heavy with A35H, D75A
chain: B1 chain
light: B1 light
notes: one-arm antibody
B10: CE115HA000 D73G one-arm antibody (antibody, human IgG1, kappa, L234A L235A, N297A, name in Kabat numbering)
heavy: B1 heavy with A35H, D76G
chain: B1 chain
light: B1 light
notes: one-arm antibody
B11: CE115HA000 A52aG one-arm antibody (antibody, human IgG1, kappa, L234A L235A, N297A, name in Kabat numbering)
heavy: B1 heavy with A35H, A53G
chain: B1 chain
light: B1 light
notes: one-arm antibody
B12: CE115HA000 D72E one-arm antibody (antibody, human IgG1, kappa, L234A L235A, N297A, name in Kabat numbering)
heavy: B1 heavy with A35H, D75E
chain: B1 chain
light: B1 light
notes: one-arm antibody
B13: CE115HA000 H35D one-arm antibody (antibody, human IgG1, kappa, L234A L235A, N297A, name in Kabat numbering)
heavy: B1 heavy with A35D
chain: B1 chain
light: B1 light
notes: one-arm antibody
B14: CE115HA000 E61A one-arm antibody (antibody, human IgG1, kappa, L234A L235A, N297A, name in Kabat numbering)
heavy: B1 heavy with A35H, E64A
chain: B1 chain
light: B1 light
notes: one-arm antibody
B15: CE115HA000 G65D one-arm antibody (antibody, human IgG1, kappa, L234A L235A, N297A, name in Kabat numbering)
heavy: B1 heavy with A35H, G68D
chain: B1 chain
light: B1 light
notes: one-arm antibody
B16: CE115HA000 A52aY one-arm antibody (antibody, human IgG1, kappa, L234A L235A, N297A, name in Kabat numbering)
heavy: B1 heavy with A35H, A53Y
chain: B1 chain
light: B1 light
notes: one-arm antibody
B17: CE115HA000 H35E one-arm antibody (antibody, human IgG1, kappa, L234A L235A, N297A, name in Kabat numbering)
heavy: B1 heavy with A35E
chain: B1 chain
light: B1 light
notes: one-arm antibody
B18: CE115HA000 D73K one-arm antibody (antibody, human IgG1, kappa, L234A L235A, N297A, name in Kabat numbering)
heavy: B1 heavy with A35H, D76K
chain: B1 chain
light: B1 light
notes: one-arm antibody
B19: CE115HA000 A60D one-arm antibody (antibody, human IgG1, kappa, L234A L235A, N297A, name in Kabat numbering)
heavy: B1 heavy with A35H, A63D
chain: B1 chain
light: B1 light
notes: one-arm antibody
B20: CE115HA000 A60E one-arm antibody (antibody, human IgG1, kappa, L234A L235A, N297A, name in Kabat numbering)
heavy: B1 heavy with A35H, A63E
chain: B1 chain
light: B1 light
notes: one-arm antibody
B21: CE115HA000 A32Y one-arm antibody (antibody, human IgG1, kappa, L234A L235A, N297A, name in Kabat numbering)
heavy: B1 heavy with A32Y, A35H
chain: B1 chain
light: B1 light
notes: one-arm antibody
B22: CE115HA000 A52aE one-arm antibody (antibody, human IgG1, kappa, L234A L235A, N297A, name in Kabat numbering)
heavy: B1 heavy with A35H, A53E
chain: B1 chain
light: B1 light
notes: one-arm antibody
B23: CE115HA000 E61D one-arm antibody (antibody, human IgG1, kappa, L234A L235A, N297A, name in Kabat numbering)
heavy: B1 heavy with A35H, E64D
chain: B1 chain
light: B1 light
notes: one-arm antibody
B24: CE115HA000 D73A one-arm antibody (antibody, human IgG1, kappa, L234A L235A, N297A, name in Kabat numbering)
heavy: B1 heavy with A35H, D76A
chain: B1 chain
light: B1 light
notes: one-arm antibody
B25: CE115HA000 F29V one-arm antibody (antibody, human IgG1, kappa, L234A L235A, N297A, name in Kabat numbering)
heavy: B1 heavy with F29V, A35H
chain: B1 chain
light: B1 light
notes: one-arm antibody
B26: CE115HA000 D73E one-arm antibody (antibody, human IgG1, kappa, L234A L235A, N297A, name in Kabat numbering)
heavy: B1 heavy with A35H, D76E
chain: B1 chain
light: B1 light
notes: one-arm antibody
B27: CE115HA000 A52aD one-arm antibody (antibody, human IgG1, kappa, L234A L235A, N297A, name in Kabat numbering)
heavy: B1 heavy with A35H, A53D
chain: B1 chain
light: B1 light
notes: one-arm antibody
B28: GLS3000 V27cP (Kabat) L chain altered form, one-arm antibody with CE115HA000 (antibody, human IgG1, kappa, L234A L235A, N297A, name in Kabat numbering)
heavy: B1 heavy with A35H
chain: B1 chain
light: B1 light with V30P
notes: one-arm antibody
B29: GLS3000 V27cL (Kabat) L chain altered form, one-arm antibody with CE115HA000 (antibody, human IgG1, kappa, L234A L235A, N297A, name in Kabat numbering)
heavy: B1 heavy with A35H
chain: B1 chain
light: B1 light with V30L
notes: one-arm antibody
B30: GLS3000 V27cI (Kabat) L chain altered form, one-arm antibody with CE115HA000 (antibody, human IgG1, kappa, L234A L235A, N297A, name in Kabat numbering)
heavy: B1 heavy with A35H
chain: B1 chain
light: B1 light with V30I
notes: one-arm antibody
B31: GLS3000 V27cS (Kabat) L chain altered form, one-arm antibody with CE115HA000 (antibody, human IgG1, kappa, L234A L235A, N297A, name in Kabat numbering)
heavy: B1 heavy with A35H
chain: B1 chain
light: B1 light with V30S
notes: one-arm antibody
B32: GLS3000 Y32A (Kabat) L chain altered form, one-arm antibody with CE115HA000 (antibody, human IgG1, kappa, L234A L235A, N297A, name in Kabat numbering)
heavy: B1 heavy with A35H
chain: B1 chain
light: B1 light with Y37A
notes: one-arm antibody
B33: GLS3000 V27cY (Kabat) L chain altered form, one-arm antibody with CE115HA000 (antibody, human IgG1, kappa, L234A L235A, N297A, name in Kabat numbering)
heavy: B1 heavy with A35H
chain: B1 chain
light: B1 light with V30Y
notes: one-arm antibody

The binders below were run against T1, CD3 epsilon homodimer protein (UniProt P07766 23-126) (assay: SPR Biacore T200, antibody over immobilised CD3e homodimer;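 further: CD3 epsilon homodimer amine-coupled on a CM4 chip, run at 25 °C in HBS-EP+, Z = bound amount of each single-residue H chain variant over that of the parent antibody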).
T1 construct: also called CD3 (CD3 epsilon)
T1 sequence (P07766 23-126): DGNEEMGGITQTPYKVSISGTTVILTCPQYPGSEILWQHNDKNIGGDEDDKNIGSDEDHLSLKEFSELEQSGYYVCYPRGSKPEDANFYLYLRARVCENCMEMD

Binder | ratio of amounts bound (Z=Y/X vs CE115HA000)
B1 | 0.17
B2 | 0.61
B3 | 0.51
B4 | 0.15
B5 | 0.78
B6 | 1.05
B7 | 1.35
B8 | 0.52
B9 | 1.41
B10 | 1.07
B11 | 0.81
B12 | 1.05
B13 | 0.2
B14 | 1.09
B15 | 0.76
B16 | 0.31
B17 | 0.19
B18 | 0.87
B19 | 0.99
B20 | 0.94
B21 | 0.33
B22 | 0.57
B23 | 0.91
B24 | 0.83
B25 | 0.36
B26 | 0.73
B27 | 1.34

What follows are binders tested against T2, CD3 epsilon homodimer protein (UniProt P07766 23-126) (assay: SPR Biacore T200, CD3 epsilon homodimer immobilized; vs unaltered GLS3000;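 further: antibody variants flowed as analyte over CD3 epsilon homodimer amine-coupled to a CM4 chip, at 25 °C in HBS-EP+ running buffer, fitted with Biacore T200 Evaluation Software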).
T2 construct: construct not described; homodimer as printed; also called CD3 (CD3 epsilon)
T2 sequence (P07766 23-126): as above

Binder | KD ratio to GLS3000 (Affinity up)
B28 | 3.71
B29 | 0.81
B30 | 1.03
B31 | 3.04
B32 | 66.8
B33 | 1.25
